Like-named read-outs stand apart in the source and are kept apart here.
What was measured:
[1] = Time course in vivo study of LNP, serum G-CSF or EPO by ELISA; settings: mice IV
Procedure: (§1) Formulations, listed in Table 31, were characterized by particle size, zeta potential, and encapsulation.
LNP formulations, shown in Table 31 (above), were administered to mice (n=5) intravenously (IV) at a single modified mRNA dose of 0.5, 0.05 or 0.005 mg/kg. The mice were bled at 8 hours, 24 hours, 72 hours and 6 days after they were administered with G-CSF or EPO modified mRNA formulations to determine protein expression using ELISA.

[2] = for Serum Concentration 8-12 hours after administration: G-CSF; for G-CSF Protein Expression, Conc: mice IV, serum 8 hrs
[3] = Non-human primate serum chemistry: alanine transaminase (ALT), aspartate transaminase (AST); assay type: in vivo, cynomolgus monkey; settings: for Aspartate Transaminase (AST): Female NHP; for Alanine Transaminase (ALT): Male NHP
[4] = Non-human primate in vivo study, serum G-CSF or EPO by ELISA; design: species or system cynomolgus monkey; settings: for Female NHP Serum Concentration / Male NHP Serum Concentration: G-CSF LNP, 0.05 mg/kg IV
Procedure: as §1
LNP formulations, shown in Table 31 (above), were administered to non-human primates (NHP) (cynomolgus monkey) (n=2) as a bolus intravenous injection (IV) over approximately 30 seconds using a hypodermic needle, which may be attached to a syringe/abbocath or butterfly if needed. The NHP were administered a single modified mRNA IV dose of 0.05 mg/kg of EPO or G-CSF or 0.005 mg/kg of EPO in a dose volume of 0.5 mL/kg. The NHPs were bled 5-6 days before dosing with the modified mRNA LNP formulations to determine protein expression in the serum and a baseline complete blood count. After administration with the modified mRNA formulation the NHP were bled at 8, 24, 48 and 72 hours to determined protein expression. At 24 and 72 hours after administration the complete blood count of the NHP was also determined. Protein expression of G-CSF and EPO was determined by ELISA. Urine from the NHPs was collected over the course of the entire experiment and analyzed to evaluate clinical safety. Samples were collected from the NHPs after they were administered with G-CSF or EPO modified mRNA formulations to determine protein expression using ELISA. Clinical chemistry, hematology, urinalysis and cytokines of the non-human primates were also analyzed.

neutrophil count = experiment: Intravenous administration of lipoplexed G-CSF mRNA, neutrophil count; assay type: in vivo; settings: mice IV, 50 ug RNA in 10% lipoplex at days 0, 2 and 4; day 5
Procedure: Neutrophils were measured at days 1, 5 and 8. Controls included non-specific mammalian RNA or the formulation buffer alone (F.Buffer). The mice were bled at days 1, 5 and 8 to determine the effect of mRNA-encoded human G-CSF to increase neutrophil count. The dosing regimen is shown in Table 64 as are the resulting neutrophil counts (thousands/uL; K/uL).

Procedure for HEK293 cells: Human embryonic kidney epithelial (HEK293) cells were seeded on 96-well plates at a density of 30,000 cells per well in 100 ul cell culture medium. 250 ng of modified G-CSF mRNA (SEQ ID NO: 6; polyA tail of approximately 160 nucleotides not shown in sequence; 5′cap, Cap1) formulated with RNAiMAX™ (Invitrogen, Carlsbad, Calif.) was added to a well. The G-CSF was completely modified with 5mC and pseudoU (100% modification), not modified with 5mC and pseudoU (0% modification) or was partially modified with 5mC and pseudoU so the mRNA would contain 75% modification, 50% modification or 25% modification. Control samples (AH 5/2, mCherry (SEQ ID NO: 7; polyA tail of approximately 160 nucleotides not shown in sequence; 5′cap, Cap1; fully modified 5mC and pseudoU) and untreated) were also analyzed. […] The supernatants were harvested after 16 hours and the secreted G-CSF protein was analyzed by ELISA.

B1: G-CSF: human G-CSF mRNA, SEQ ID NO: 6, polyA about 160 nt, Cap1, fully modified with 5-methylcytosine and pseudouridine (nucleic acid, listed as Homo sapiens)
chain: GGGAAAUAAGAGAGAAAAGAAGAGUAAGAAGAAAUAUAAGAGCCACCAUGGCCGGUCCCGCGACCCAAAGCCCCAUGAAACUUAUGGCCCUGCAGUUGCUGCUUUGGCACUCGGCCCUCUGGACAGUCCAAGAAGCGACUCCUCUCGGACCUGCCUCAUCGUUGCCGCAGUCAUUCCUUUUGAAGUGUCUGGAGCAGGUGCGAAAGAUUCAGGGCGAUGGAGCCGCACUCCAAGAGAAGCUCUGCGCGACAUACAAACUUUGCCAUCCCGAGGAGCUCGUACUGCUCGGGCACAGCUUGGGGAUUCCCUGGGCUCCUCUCUCGUCCUGUCCGUCGCAGGCUUUGCAGUUGGCAGGGUGCCUUUCCCAGCUCCACUCCGGUUUGUUCUUGUAUCAGGGACUGCUGCAAGCCCUUGAGGGAAUCUCGCCAGAAUUGGGCCCGACGCUGGACACGUUGCAGCUCGACGUGGCGGAUUUCGCAACAACCAUCUGGCAGCAGAUGGAGGAACUGGGGAUGGCACCCGCGCUGCAGCCCACGCAGGGGGCAAUGCCGGCCUUUGCGUCCGCGUUUCAGCGCAGGGCGGGUGGAGUCCUCGUAGCGAGCCACCUUCAAUCAUUUUUGGAAGUCUCGUACCGGGUGCUGAGACAUCUUGCGCAGCCGUGAAGCGCUGCCUUCUGCGGGGCUUGCCUUCUGGCCAUGCCCUUCUUCUCUCCCUUGCACCUGUACCUCUUGGUCUUUGAAUAAAGCCUGAGUAGGAAG
modifications: Cap1; polyA; 5-methylcytosine, pseudouridine
half-life of mRNA (HEK293 cells): 8 to 10 h | G-CSF Serum Concentration ([1]; LNP NPA-030-2, 0.005 mg/kg, 8 hours): 1,550.6 pg/ml | G-CSF Serum Concentration ([1]; LNP NPA-030-2, 0.005 mg/kg, 24 hours): 5,068.9 pg/ml | G-CSF Serum Concentration ([1]; LNP NPA-030-2, 0.05 mg/kg, 8 hours): 462,312.5 pg/ml | G-CSF Serum Concentration ([1]; LNP NPA-030-2, 0.05 mg/kg, 24 hours): 80,903.8 pg/ml | G-CSF Serum Concentration ([1]; LNP NPA-030-2, 0.5 mg/kg, 8 hours): >1,250,000 pg/ml | G-CSF Serum Concentration ([1]; LNP NPA-030-2, 0.5 mg/kg, 24 hours): 495,812.5 pg/ml | G-CSF Serum Concentration ([1]; LNP NPA-030-2, 0.5 mg/kg, 72 hours): 1,325.6 pg/ml | time out to which protein expression was detectable ([1]; LNP, 0.005 mg/kg and 0.05 mg/kg): 72 h | Serum Concentration 8-12 hours after administration ([2]; IM, 100 ug, saline): ~20 to 80 pg/mL | Serum Concentration 8-12 hours after administration ([2]; IV (LNP), 1 ug): ~20,000 pg/ml | Serum Concentration 8-12 hours after administration ([2]; IV (LNP), 10 ug): ~1,000,000 pg/ml | Serum Concentration 8-12 hours after administration ([2]; IV (LNP), 100 ug): ~5,000,000 pg/ml | Serum Concentration 8-12 hours after administration ([2]; IV (Lipoplex), 100 ug): ~30 pg/mL | Serum Concentration 8-12 hours after administration ([2]; SC, 100 ug, saline): ~10 to 40 pg/mL | G-CSF Protein Expression, Conc ([2]; LNP NPA-030-1, 10 ug): ~1200 ng/mL | G-CSF Protein Expression, Conc ([2]; LNP NPA-030-1, 100 ug): ~4700 ng/mL | Aspartate Transaminase (AST) ([3]; 0.005 mg/kg, 2 days): 34 U/L | Aspartate Transaminase (AST) ([3]; 0.005 mg/kg, 4 days): 36 U/L | Aspartate Transaminase (AST) ([3]; 0.005 mg/kg, 7 days): 31 U/L | Aspartate Transaminase (AST) ([3]; 0.005 mg/kg, 14 days): 20 U/L | Aspartate Transaminase (AST) ([3]; 0.005 mg/kg, Pre-dose): 54 U/L | Aspartate Transaminase (AST) ([3]; 0.05 mg/kg, 1 days): 34 U/L | Aspartate Transaminase (AST) ([3]; 0.05 mg/kg, 4 days): 42 U/L | Aspartate Transaminase (AST) ([3]; 0.05 mg/kg, 7 days): 52 U/L | Aspartate Transaminase (AST) ([3]; 0.05 mg/kg, 14 days): 20 U/L | Aspartate Transaminase (AST) ([3]; 0.05 mg/kg, Pre-dose): 33 U/L | Aspartate Transaminase (AST) ([3]; 0.5 mg/kg, 2 days): 794 U/L | Aspartate Transaminase (AST) ([3]; 0.5 mg/kg, 4 days): 63 U/L | Aspartate Transaminase (AST) ([3]; 0.5 mg/kg, 7 days): 68 U/L | Aspartate Transaminase (AST) ([3]; 0.5 mg/kg, 14 days): 67 U/L | Aspartate Transaminase (AST) ([3]; 0.5 mg/kg, Pre-dose): 47 U/L | Alanine Transaminase (ALT) ([3]; 0.005 mg/kg, 2 days): 39 U/L | Alanine Transaminase (ALT) ([3]; 0.005 mg/kg, 4 days): 48 U/L | Alanine Transaminase (ALT) ([3]; 0.005 mg/kg, 7 days): 29 U/L | Alanine Transaminase (ALT) ([3]; 0.005 mg/kg, 14 days): 44 U/L | Alanine Transaminase (ALT) ([3]; 0.005 mg/kg, Pre-dose): 43 U/L | Alanine Transaminase (ALT) ([3]; 0.05 mg/kg, 2 days): 82 U/L | Alanine Transaminase (ALT) ([3]; 0.05 mg/kg, 4 days): 88 U/L | Alanine Transaminase (ALT) ([3]; 0.05 mg/kg, 7 days): 73 U/L | Alanine Transaminase (ALT) ([3]; 0.05 mg/kg, 14 days): 50 U/L | Alanine Transaminase (ALT) ([3]; 0.05 mg/kg, Pre-dose): 58 U/L | Alanine Transaminase (ALT) ([3]; 0.5 mg/kg, 2 days): 63 U/L | Alanine Transaminase (ALT) ([3]; 0.5 mg/kg, 4 days): 70 U/L | Alanine Transaminase (ALT) ([3]; 0.5 mg/kg, 7 days): 41 U/L | Alanine Transaminase (ALT) ([3]; 0.5 mg/kg, 14 days): 43 U/L | Alanine Transaminase (ALT) ([3]; 0.5 mg/kg, Pre-dose): 29 U/L | Female NHP Serum Concentration ([4]; 8 hours): 3289 pg/mL | Male NHP Serum Concentration ([4]; 8 hours): 1722 pg/mL | Female NHP Serum Concentration ([4]; 48 hours): 0 pg/mL | Male NHP Serum Concentration ([4]; 48 hours): 0 pg/mL | Female NHP Serum Concentration ([4]; 72 hours): 0 pg/mL | Male NHP Serum Concentration ([4]; 72 hours): 0 pg/mL | Female NHP Serum Concentration ([4]; Pre-bleed): 0 pg/mL | Male NHP Serum Concentration ([4]; Pre-bleed): 0 pg/mL | time out to which protein expression was detectable ([4]; NHP IV, LNP, 0.05 mg/kg): 24 h | increase in neutrophil count above control (neutrophil count): four to five fold increase

Source: patent US20200164038A1, “MODIFIED NUCLEOSIDE, NUCLEOTIDE, AND NUCLEIC ACID COMPOSITIONS” (ModernaTX, Inc., priority 2011, published 2020)
